The term stoichiometry N denotes a count of units in the complex or per binding partner.

“And” between values parts separate entries of the source, which are not always exact repeats. Identical values can stand only once.

Test [1] has as its target Phaseolus acutifolius agglutinin (lectin from white tepary bean, Phaseolus acutifolius variety latifolius) (Phaseolus acutifolius).
Test [2] has the same target. Put plainly: SEC.
Test [3] shares this target. Briefly: native gel or EMSA. A general note: In EMSA bound probe runs differently from free probe, usually more slowly.
For test [4] the target is unchanged. Briefly: SEC; TSK 3000 SW HPLC column in PBS, 0.5 mL/min, 0.1 mg pure lectin; data not shown. A general note: Size exclusion chromatography separates by hydrodynamic size, large species first.

In test [1], “Ovoalbumin (from UniProt P01012 1-386) (natural protein)” came in with an Inhibitory concentration (lowest concentration giving complete inhibition) of hemagglutination of trypsinized human A erythrocytes by PAA of 1.3 mg/mL and an Inhibitory concentration (lowest concentration giving complete inhibition) of hemagglutination of trypsinized human O erythrocytes by PAA of 1.3 mg/mL.
With “Phaseolus acutifolius agglutinin (lectin from white tepary bean, Phaseolus acutifolius variety latifolius) (natural protein)”, the stoichiometry N in test [2] was 4 and 2; in test [3] it was more than 4; in test [4], 2.
In test [1], “Porcine thyroglobulin (from UniProt F1RRV3 20-2692) (natural protein)” came in with an Inhibitory concentration (lowest concentration giving complete inhibition) of hemagglutination of trypsinized human A erythrocytes by PAA of 0.0048 mg/mL and an Inhibitory concentration (lowest concentration giving complete inhibition) of hemagglutination of trypsinized human O erythrocytes by PAA of 0.0048 mg/mL.
Regarding “Recombinant soluble human β-1,6-N-acetylglucosaminyltransferase V (from UniProt Q09328 1-741) (enzyme)”, in test [1], the Inhibitory concentration (lowest concentration giving complete inhibition) of hemagglutination of trypsinized human A erythrocytes by PAA worked out at 0.0273 mg/mL and the Inhibitory concentration (lowest concentration giving complete inhibition) of hemagglutination of trypsinized human O erythrocytes by PAA was 0.0017 mg/mL.

B1: Bovine fibrinogen (complex)
chain 1: GPRLVERQQSACKETGWPFCSDEDWNTKCPSGCRMKGLIDEVDQDFTSRINKLRDSLFNYQKNSKDSNTLTKNIVELMRGDFAKANNNDNTFKQISEDLRSRIEILRRKVIEQVQRIKVLQKNVRDQLVDMKRLEVDIDIKIRSCKGSCSRALEHKVDLEDYKNQQKQLEQVIAINLLPSRDIQYLPLIKMSTITGPVPREFKSQLQEAPLEWKALLEMQQTKMVLETFGGDGHARGDSVSQGTGLAPGSPRKPGTSSIGNVNPGSYGPGSSGTWNPGRPEPGSAGTWNPGRPEPGSAGTWNPGRPEPGSAGTWNPGRPEPGSAGTWNPGRPEPGSAGTWNTGSSGSSSFRPDSSGHGNIRPSSPDWGTFREEGSVSSGTKQEFHTGKLVTTKGDKELLIDNEKVTSGHTTTTRRSCSKVITKTVTNADGRTETTKEVVKSEDGSDCGDADFDWHHTFPSRGNLDDFFHRDKDDFFTRSSHEFDGRTGLAPEFAALGESGSSSSKTSTHSKQFVSSSTTVNRGGSAIESKHFKMEDEAESLEDLGFKGAHGTQKGHTKARPARGIHTSPLGEPSLTP
chain 2: GHRPYDKKKEEAPSLRPVPPPISGGGYRARPATATVGQKKVERKPPDADGCLHADPDLGVLCPTGCKLQDTLVRQERPIRKSIEDLRNTVDSVSRTSSSTFQYITLLKNMWKGRQNQVQDNENVVNEYSSHLEKHQLYIDETVKNNIPTKLRVLRSILENLRSKIQKLESDVSTQMEYCRTPCTVTCNIPVVSGKECEKIIRNEGETSEMYLIQPEDSSKPYRVYCDMKTEKGGWTVIQNRQDGSVDFGRKWDPYKQGFGNIATNAEGKKYCGVPGEYWLGNDRISQLTNMGPTKLLIEMEDWKGDKVTALYEGFTVQNEANKYQLSVSKYKGTAGNALIEGASQLVGENRTMTIHNSMFFSTYDRDNDGWKTTDPRKQCSKEDGGGWWYNRCHAANPNGRYYWGGAYTWDMAKHGTDDGVVWMNWQGSWYSMKKMSMKIRPYFPEQ
chain 3: YVATRDNCCILDERFGSYCPTTCGIADFLNNYQTSVDKDLRTLEGILYQVENKTSEARELVKAIQISYNPDQPSKPNNIESATKNSKSMMEEIMKYETLISTHESTIRFLQEVYNSNSQKIVNLRDKVVQLEANCQEPCQDTVKIHDVTGRDCQDVANKGAKESGLYFIRPLKAKQFLVYCEIDGSGNGWTVFQKRLDGSLDFKKNWIQYKEGFGHLSPTGTGNTEFWLGNEKIHLISTQSSIPYVLRIQLEDWNGRTSTADYASFKVTGENDKYRLTYAYFIGGDAGDAFDGYDFGDDSSDKFFTSHNGMQFSTWDSDNDKYDGNCAEQVGIGWWMNKCHAGHLNGVYYQGGTYSKTSTPNGYDNGIIWATWKSRWYSMKKTTMKIIPLNRLAIGEGQQHQLGGAKQVGVEHHVEIEYD
In test [1], B1 came in with an Inhibitory concentration (lowest concentration giving complete inhibition) of hemagglutination of trypsinized human A erythrocytes by PAA of 0.0391 mg/mL and an Inhibitory concentration (lowest concentration giving complete inhibition) of hemagglutination of trypsinized human O erythrocytes by PAA of 0.0098 mg/mL.

B2: Bovine fetuin (natural protein)
chain: IPLDPVAGYKEPACDDPDTEQAALAAVDYINKHLPRGYKHTLNQIDSVKVWPRRPTGEVYDIEIDTLETTCHVLDPTPLANCSVRQQTQHAVEGDCDIHVLKQDGQFSVLFTKCDSSPDSAEDVRKLCPDCPLLAPLNDSRVVHAVEVALATFNAESNGSYLQLVEISRAQFVPLPVSVSVEFAVAATDCIAKEVVDPTKCNLLAEKQYGFCKGSVIQKALGGEDVRVTCTLFQTQPVIPQPQPDGAEAEAPSAVPDAAGPTPSAAGPPVASVVVGPSVVAVPLPLHRAHYDLRHTFSGVASVESSSGEAFHVGKTPIVGQPSIPGGPVRLCPGRIRYFKI
modifications: glycoprotein with N-linked biantennary and triantennary complex oligosaccharides (sites not given)
Turning to B2, in test [1], the Inhibitory concentration (lowest concentration giving complete inhibition) of hemagglutination of trypsinized human A erythrocytes by PAA amounted to 0.156 mg/mL and the Inhibitory concentration (lowest concentration giving complete inhibition) of hemagglutination of trypsinized human O erythrocytes by PAA worked out at 0.0781 mg/mL.
